Reference: patent US7067474B1, “Agents for treating human illnesses based on β-catenin, and the production and use thereof” (Max-Delbruck-Centrum fur Molekulare Medizin, priority 1998, dated 2006)
Numbering of substitutions follows the chain as printed.

Columns and labels:
Test in all cases: yeast 2-hybrid; - means 60-100% of the wild type interaction
[1] = molecular target: T1, human β-catenin (Leu218-Leu781) mutant Lys 292 to alanine, Gal-4 activation domain fusion (human, UniProt P35222 218-781)
T1 sequence: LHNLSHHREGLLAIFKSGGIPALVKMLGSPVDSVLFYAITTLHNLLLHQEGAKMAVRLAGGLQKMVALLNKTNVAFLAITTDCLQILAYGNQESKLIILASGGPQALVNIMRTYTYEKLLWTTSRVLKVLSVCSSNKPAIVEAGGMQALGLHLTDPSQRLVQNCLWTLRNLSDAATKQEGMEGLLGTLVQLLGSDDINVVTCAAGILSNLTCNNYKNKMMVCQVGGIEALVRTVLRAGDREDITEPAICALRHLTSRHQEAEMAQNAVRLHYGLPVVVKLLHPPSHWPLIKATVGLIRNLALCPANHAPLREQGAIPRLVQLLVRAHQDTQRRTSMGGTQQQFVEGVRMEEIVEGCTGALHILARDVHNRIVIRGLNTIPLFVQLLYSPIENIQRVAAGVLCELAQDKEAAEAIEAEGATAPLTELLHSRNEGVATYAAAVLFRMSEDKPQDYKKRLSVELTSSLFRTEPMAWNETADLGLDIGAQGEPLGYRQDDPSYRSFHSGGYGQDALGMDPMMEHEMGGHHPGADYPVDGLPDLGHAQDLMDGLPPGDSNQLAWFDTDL
Procedure: (§1) 4. Preparation and testing of mutants of β-catenin modulating the interaction with LEF-1, APC, conductin or E-cadherin The mutagenesis of β-catenin in the armadillo repeats 3–8 was carried out by means of the "mutagenesis kit" of the company Clontech according to the producer's record and the mutants were checked by sequencing (FIG. 5). In all mutants the original amino acid was substituted by alanine. For analyzing the interactions the cDNA of human β-catenin (armadillo repeat 3 up to the C-terminal end of the protein) coding for the amino acids Leu218–Leu7 µl or its mutants was cloned into the fusion vector for the activation domain of Gal-4 (pGAD424, Clontech). The cDNA for the binding domains of the interaction partners was cloned into the Lex-A fusion vector BTM 116. To this end, the cDNA of LEF-1 for the amino acids 1–99, conductin for the amino acids Ala342–ARG465; of human APC for the amino acids His1012–Glu1215 (APC 15 amino acid repeats) and for the amino acids Ser1259Asp 1400 (APC 20 amino acid repeats) and E-cadherin for the amino acids Gin773–Asp884 (cytoplasmatic domain) were amplified with the respective primers PCR. The interaction of the Lex-A hybrids with β-catenin and its mutants was quantified by means of the β-galactosidase reporter activity in the yeast 2-hybrid system (report: "Matchmaker". Clontech) (Tab. 2 and FIG. 6).

[2] = molecular target: T2, human β-catenin (Leu218-Leu781) mutant Lys 394 to alanine, Gal-4 activation domain fusion (human, UniProt P35222 218-781)
T2 sequence: T1 sequence with A75K, K177A
Procedure: as §1

[3] = molecular target: T3, human β-catenin (Leu218-Leu781) mutant Trp 383 to alanine, Gal-4 activation domain fusion (human, UniProt P35222 218-781)
T3 sequence: T1 sequence with A75K, W166A
Procedure: as §1

Measured: binding result

B1: LEF-1 amino acids 1-99 fused to Lex-A (vector BTM 116) (other, UniProt P0A7C2 1-202, looked up)
chain: MKALTARQQEVFDLIRDHISQTGMPPTRAEIAQRLGFRSPNAAEEHLKALARKGVIEIVSGASRGIRLLQEEEEGLPLVGRVAAGEPLLAQQHIEGHYQVDPSLFKPNADFLLRVSGMSMKDIGIMDGDLLAVHKTQDVRNGQVVVARIDDEVTVKRLKKQGNKVELLPENSEFKPIVVDLRQQSFTIEGLAVGVIRNGDWLMPQLSGGGGGGDPELCATDEMIPFKDEGDPQKEKIFAEISHPEEEGDLADIKSSLVNESEIIPASNGHEVVRQAPSSQEPYHDKAREHPDEGKHPDGGL
notes: Order of the fusion follows the vector; also called LEF-1/TCF-4
binds: all assays above
